Measured values from PMC10787225 (Computational and Structural Biotechnology Journal, 2023).

What was measured:
[1] = Solubility by visible precipitation upon dissolution of lyophilized peptide; details: aqueous buffer, µM concentrations, neutral pH; visual
Description: (§1) Fig. 4 Test set of eight protein segments. (A) List of the investigated peptides. Underlined stretches in the peptide sequences correspond to the predicted amyloidogenic β-hairpins. A peptide was considered ‘soluble’ when no visible precipitation occurred upon dissolution of the lyophilized peptide in 20 mM NaPi, pH 7.4, 50 mM NaCl, to a final concentration of 20 µM. […] (B) Conformations of investigated segments (red) in the context of their source proteins.

[2] = Thioflavin T (ThT) aggregation assay; format: physicochemical; details: for Shape of ThT time course / kind of aggregates: 20–550 µM peptide; for Shape of ThT time course / kind of aggregates / ThT: 20 mM NaPi, pH 7.4, 50 mM NaCl, 37 °C; for ThT: peptide 20–550 µM, up to 85 h, 300 rpm, glass bead, 25 µM ThT, triplicate; for ThT fluorescence of peptide alone: 50 mM Tris, pH 8.5, 37 °C, 40 µM ThT
Description: All ThT aggregation assays were done in Greiner 96-well half-area, clear bottom, low-binding plates. The measurements themselves were done in a BMG CLARIOstar plate reader at 37 °C and 300 rpm shaking in orbital mode with one glass bead (0.75–1 mm, Roth) per well. Wells with samples were always surrounded by wells filled with liquid, either other samples or 150 μl water, to counter potential artefacts due to evaporation. […] Final concentrations of 25 µM ThT and 0.04% sodium azide (NaN3) were added. The plate was sealed with sealing tape and put into the plate reader, heated to 37 °C, and ThT fluorescence was read in 1000 cycles of 300 s each using bottom optics with excitation at 448 nm (10 nm bandwidth) and emission at 482 nm (10 nm bandwidth). […] Samples contained 40 µM ThT and 0.04% NaN3.
as §1

β-wrapin AS10 [3] = experiment: 1H-15N HSQC NMR detection of β-hairpin formation upon AS10 binding; details: 25 °C; for NMR signature of β-hairpin folding coupled to AS10 binding (1H–15N HSQC of 15N-AS10): 100 µM 15N-AS10 mixed with 20% molar excess of peptide, pH 7.4
Description: The NMR spectra were acquired at 25 °C using VNMRS instruments (Varian) at proton frequencies of 800 and 900 MHz, each equipped with a cryogenically cooled Z-axis pulse-field-gradient (PFG) triple resonance probe. The sample buffer was 20 mM sodium phosphate, pH 7.4, 50 mM NaCl, supplemented with 10% D2O. For detection of complex formation, samples contained 100 μM ^15N-labeled AS10, expressed and purified as described, [43], and a 20% excess of the unlabeled peptide. For determination of β-sheet registries, NMR samples contained ^13C^15N-labeled fusion constructs in concentrations between 360–700 μM. Backbone assignments were obtained using BEST-TROSY experiments. Nuclear Overhauser effect (NOE) based distance restraints for β-sheet registry determination were derived from 3D (^1H–^1H-^15N)-NOESY-HSQC (120 ms mixing time) and (^1H–^13Cali-^1H)-HSQC-NOESY (100 ms mixing time) experiments. NMR data were processed using NMRPipe and analyzed with CcpNMR [50].
To test for β-hairpin formation in the peptides upon binding to AS10 we performed NMR spectroscopy. ^1H–^15N HSQC NMR spectroscopy using ^15N-labeled AS10 (^15N-AS10) and unlabeled binding partner leads to characteristic changes upon β-hairpin folding coupled to binding. These include a great increase in resonance dispersion, appearance of four amide proton resonances in the glycine region (^15N chemical shift <110 ppm) stemming from Gly-13 and Gly-14 in the two AS10-subunits, as well as appearance of amide proton resonances with shift values typical for β-sheet conformation (high ^1H and high ^15N chemical shifts).

[4] = Atomic force microscopy (AFM) of samples at the end of ThT aggregation assays; format: physicochemical; details: for AFM aggregate morphology: end of ThT aggregation assay in 20 mM NaPi, pH 7.4, 50 mM NaCl, dried on mica; for AFM aggregate morphology of individual peptide: end of ThT assay at moderate peptide concentrations without ThT fluorescence, 50 mM Tris, pH 8.5
Description: (§2) For AFM imaging, 2 μl samples were taken out of the wells at the end of the ThT aggregation assays, put onto a freshly cleaved muscovite mica surface and dried during incubation for 10 min under the clean bench. Subsequently, the samples were washed with 100 μl ddH2O in three steps and dried with a stream of N2 gas. Imaging was performed in intermittent contact mode (AC mode) in a JPK NanoWizard 3 atomic force microscope using a silicon cantilever with silicon tip (OMCL-AC160TS-R3, Olympus) with a typical tip radius of 9 ± 2 nm, a force constant of 26 N/m and resonance frequency around 300 kHz. The images were processed using JPK DP Data Processing Software (version spm-5.0.84).

β-wrapin AS10 [5] = experiment: ITC; 30 µM AS10 in the cell, peptides titrated from the syringe at approximately 10-fold higher concentrations; 30 °C; 20 mM sodium phosphate, pH 7.4, 50 mM NaCl; fit to a 1:1 binding model
PAP(248−286) = experiment: ThT aggregation assay and AFM of PAP(248−286) in presence of added peptide; format: biochemical, human; details: 500 µM PAP(248−286), added peptide 25–100 µM, 50 mM Tris, pH 8.5, 37 °C, 40 µM ThT
Description: (§3) All ThT aggregation assays were done in Greiner 96-well half-area, clear bottom, low-binding plates. The measurements themselves were done in a BMG CLARIOstar plate reader at 37 °C and 300 rpm shaking in orbital mode with one glass bead (0.75–1 mm, Roth) per well. Wells with samples were always surrounded by wells filled with liquid, either other samples or 150 μl water, to counter potential artefacts due to evaporation. […] Final concentrations of 25 µM ThT and 0.04% sodium azide (NaN3) were added. The plate was sealed with sealing tape and put into the plate reader, heated to 37 °C, and ThT fluorescence was read in 1000 cycles of 300 s each using bottom optics with excitation at 448 nm (10 nm bandwidth) and emission at 482 nm (10 nm bandwidth). […] PAP(248−286) and SEM1(86−107) were kept at constant concentrations of 500 and 300 µM, respectively. […] Samples contained 40 µM ThT and 0.04% NaN3.
as §2

SEM1(86−107) = experiment: ThT aggregation assay and AFM of SEM1(86−107) in presence of added peptide; format: biochemical, human; details: 300 µM SEM1(86−107), added peptide 25–100 µM, 50 mM Tris, pH 8.5, 37 °C, 40 µM ThT
Description: as §3, §2

[6] = peptide alone 25–100 µM (up to 100 µM)

| Molecule | Precipitate formation upon dissolution [1] | Shape of ThT time course / kind of aggregates [2] | ThT [2] | NMR signature of β-hairpin folding coupled to AS10 binding (1H–15N HSQC of 15N-AS10) (β-wrapin AS10 [3]) | Kd (β-wrapin AS10 [5]) [µM] | also measured |
| --- | --- | --- | --- | --- | --- | --- |
| 3-PGDH(298−319): synthetic peptide of predicted β-hairpin-forming amyloidogenic segment 298−319 of 3-PGDH (EIAVQFVDMVKGKSLTGVVNAQ; UniProt O43175 298-319, looked up, fragment) | immediate precipitate formation upon dissolution | can form both ThT-positive as well as ThT-negative aggregates | + | no change | – | – |
| CYP2W1(176−204): synthetic peptide of predicted β-hairpin-forming amyloidogenic segment 176−204 of CYP2W1 (SNITFALLFGRRFDYRDPVFVSLLGLIDE) | immediate precipitation | ThT fluorescence was high from the beginning | + | signature was also observed | – | NMR β-hairpin (β-wrapin AS10 [3]; 100 µM 15N-AS10 with 20% molar excess of peptide, 20 mM sodium phosphate, pH 7.4, 50 mM NaCl): +; AFM aggregate morphology [4]: fibrillar aggregates confirming amyloid formation were detected |
| MIC26(153−178): synthetic peptide of predicted β-hairpin-forming amyloidogenic segment 153−178 of MIC26 (QQAIVFAQVSGERLYDWGLRGYIVIE; UniProt Q9BUR5 153-178, looked up, fragment) | immediate precipitation | ThT fluorescence was high from the beginning | + | no change | – | AFM aggregate morphology [4]: fibrillar aggregates confirming amyloid formation were detected |
| NDUFS7(104−129) (from UniProt O75251 104-129) (peptide) | – | – | – | – | 4.7 | – |
| PAP Str1(186−194): β-strand peptide, constituent segment 186−194 of PAP(185−208) (DFIATLGKL) | – | – | – | – | – | ThT fluorescence of peptide alone [2, 6]: concentration-dependent increase in ThT fluorescence within minutes to a few hours; Effect of added peptide on ThT time trace of PAP(248−286) (PAP(248−286)): ThT time traces exhibited additional phases of rapid growth; Effect of added peptide on ThT time trace of SEM1(86−107) (SEM1(86−107)): ThT time traces exhibited additional phases of rapid growth |
| PAP Str2(200−208): β-strand peptide, constituent segment 200−208 of PAP(185−208) | – | – | – | – | – | ThT fluorescence of peptide alone [2, 6]: do not exhibit ThT fluorescene; Effect of added peptide on ThT time trace of PAP(248−286) (PAP(248−286)): induced increases in ThT fluorescence, albeit with somewhat longer lag-times; Effect of added peptide on ThT time trace of SEM1(86−107) (SEM1(86−107)): induced increases in ThT fluorescence, albeit with somewhat longer lag-times |
| PAP(248−286): PAP fragment which forms functional amyloid in semen (GIHKQKEKSRLQGGVLVNEILNHMKRATQIPSYKKLIMY) [reference compound] | – | – | – | – | – | ThT fluorescence of peptide alone ([2]; peptide alone 500 µM): did not exhibit ThT fluorescence; AFM aggregate morphology of individual peptide [4]: aggregates of amorphous shape |
| SEM1(86−107): semen amyloid peptide, fragment of semenogelin-1 (DLNALHKTTKSQRHLGGSQQLL) [reference compound] | – | – | – | – | – | ThT fluorescence of peptide alone ([2]; peptide alone 300 µM): did not exhibit ThT fluorescence; AFM aggregate morphology of individual peptide [4]: aggregates of amorphous shape |
| KDFIATLGKLSGLHGQDLFGIWSK [PAP(185−208)] | – | – | – | – | 39 | – |
| AVILGKVVFSLTTEEKVPFTFGLVDSD [TTC5(335−361)] | – | – | – | – | 4.7 | – |
